We go through 14 molecules from patent publication US8367389B2, “Methods, compositions and devices utilizing structurally stable cyanuric acid hydrolase” (Regents of the University of Minnesota, priority 2009, dated 2013).

Data set [1] concerns the target T1, cyanuric acid hydrolase from M. thermoacetica (Moorella thermoacetica, UniProt Q2RGM7).
T1 construct: ORF Moth—2120 from M. thermoacetica ATCC 39073 was PCR amplified; His-tag (from pET28b+, cloned NdeI/HindIII) (N); made in house; host or cells: E. coli BRL21(DE3) pLysS, vector pET28b+::Moth_2120
T1 sequence (Q2RGM7 1-367): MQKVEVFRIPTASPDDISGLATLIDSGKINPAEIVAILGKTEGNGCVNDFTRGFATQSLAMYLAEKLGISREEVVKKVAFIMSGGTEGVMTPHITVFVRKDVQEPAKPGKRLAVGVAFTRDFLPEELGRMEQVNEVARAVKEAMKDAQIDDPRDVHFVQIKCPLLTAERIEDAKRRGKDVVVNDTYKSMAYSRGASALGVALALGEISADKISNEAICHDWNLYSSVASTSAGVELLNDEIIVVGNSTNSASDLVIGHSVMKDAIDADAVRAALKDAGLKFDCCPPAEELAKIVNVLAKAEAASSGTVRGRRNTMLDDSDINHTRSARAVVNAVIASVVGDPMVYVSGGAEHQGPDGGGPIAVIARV
It counts as biochemical, Moorella thermoacetica ATCC 39073. To be noted: for effect of metal on native enzyme activity: 0.2 mM; for activity as % of native activity: at higher concentrations (1.0 and 2.0 mM).

The target in data set [2] is T1, cyanuric acid hydrolase from M. thermoacetica. Nature of the data set: Metal chelator effects. To be noted: for effect of chelator on activity: 5 mM chelator, 24 h incubation, room temperature. It counts as biochemical, Moorella thermoacetica ATCC 39073. As to the method: Metal chelator effects. Purified protein was incubated at room temperature with 5 mM 1,10-phenanthroline, 8-hydroxyquinoline-5-sulfonic acid, or ethylenediaminetetraacetic acid (EDTA) for 24 hours. PD-10 desalting columns (GE Healthcare) were used, as per the manufacturer's instructions, to remove the chelator from the enzyme. Enzymatic activity was measured with cyanuric acid as substrate, as described above.

The target of data set [3] is T2, Moorella cyanuric acid hydrolase (Moorella thermoacetica, UniProt Q2RGM7).
T2 construct: ORF Moth—2120 from M. thermoacetica ATCC 39073 was PCR amplified; His-tag (from pET28b+, cloned NdeI/HindIII) (N); made in house; host or cells: E. coli BRL21(DE3) pLysS, vector pET28b+::Moth_2120
T2 sequence (Q2RGM7 1-367): T1 sequence (Q2RGM7 1-367)
Nature of the data set: Substrate specificity analysis. It counts as biochemical, Moorella thermoacetica ATCC 39073. On the procedure:
(§1) Enzyme assay and kinetic constant determinations. Enzyme activity was monitored on a Beckman DU 640 spectrophotometer (Beckman Coulter, Fullerton, Calif.). Cyanuric acid and barbituric acid concentrations were measured at 214 nm (extinction coefficient=9200 cm^−1M^−1) and 256 nm, respectively. Reactions were carried out in 0.5 ml 25 mM Tris-HCl buffer, pH 8.0 with 100 μM cyanuric acid or barbituric acid at 30° C. Reactions were initiated by the addition of the enzyme. Kinetic parameters were determined by obtaining rates at cyanuric acid concentrations ranging from 10 to 110 μM. The data was plotted using Lineweaver-Burke plots.
Substrate specificity analysis. Seventeen compounds structurally analogous to cyanuric acid were tested as substrates: 5-nitrobarbituric acid, 5-methylbarbituric acid, 2-methylamino-4,6dihydroxy-s-triazine, 1,3,5-trimethoxy-s-triazine, 2-(3-methoxy propylamino)-4,6-dihydroxy-s-triazine, triphenoxy-s-triazine, 2-secbutyl-4,6-dihydroxy-s-triazine, N-phenyl ammelide, 2-ethylamino-4,6-dihydroxy-s-triazine, triisopropoxy-s-triazine, trimethyl isocyanurate, 1,3-dimethyl isocyanurate, hexazinone, 4,6-dihydroxy-2-mecapto pyrimidine, 4,6-dihydroxy-5-nitro-pyrimidine, barbituric acid and methyl isocyanurate. The compounds (100 μM) were incubated with 50 μg of purified enzyme in 25 mM Tris-HCl buffer (pH 8.0) for 30 min. Changes in the UV spectra were recorded. In cases where changes in the spectra were detected, an appropriate wavelength with absorbance differences between the substrate and product was chosen for further kinetic study. For N-methylisocyanurate, absorbance was measured at 214 nm (extinction coefficient=9500 cm^−1M^−1).

Data set [4] is described as follows: Temperature stability of the enzyme (30 min incubation prior to assay). The format is biochemical. On the procedure: FIG. 4. Stability of enzyme activity vs. temperature at pH 8.0 for purified cyanuric acid hydrolases from M. thermoacetica ATCC 39073 (●) compared with TrzD (▪) and AtzD (▴). Enzymes were maintained at the temperature indicated for 30 minutes prior to assay under standard conditions.
(§2) Temperature stability of the enzyme. The thermal stability of the enzyme was determined by incubating the enzyme at various temperatures for […] prior to activity determinations. Studies of the stability during storage were performed at 4° C. or −80° C. with or without additives. The additives were 0.2 mM of dithiothreitol (DTT), 10% ethylene glycol, 25% glycerol and 25% polyethylene glycol (PEG) 4000. The activity was checked every two weeks, as described above.

Data set [5] has as its target T3, cyanuric acid hydrolase from M. thermoacetica ATCC 39073 (Moorella thermoacetica, UniProt Q2RGM7).
T3 construct: ORF Moth—2120 from M. thermoacetica ATCC 39073 was PCR amplified; His-tag (from pET28b+, cloned NdeI/HindIII) (N); made in house; host or cells: E. coli BRL21(DE3) pLysS, vector pET28b+::Moth_2120
T3 sequence (Q2RGM7 1-367): T1 sequence (Q2RGM7 1-367)
Nature of the data set: Storage stability at 4° C. or −80° C. with or without additives. It counts as biochemical, Moorella thermoacetica ATCC 39073. As to conditions: for Activity, 0 week: pH 8.0, 0 week; for Activity, 2 week: pH 8.0, 2 week; for Activity, 4 week: pH 8.0, 4 week; for Activity, 6 week: pH 8.0, 6 week; for Activity, 8 week: pH 8.0, 8 week. On the procedure: as §2

For data set [6] the following is noted: cyanuric acid, published values, cited from earlier work.
A short description of data set [7]: Enzyme assay and kinetic constant determinations (cyanuric acid, 214 nm). The format is biochemical. On the procedure: as §1
A short description of data set [8]: Effect of pH and temperature on enzymatic activity. The format is biochemical. As to the method: Effect of pH and temperature on enzymatic activity. The optimum pH of the enzyme was determined at 30° C. with the following buffers: 25 mM […]; 25 mM Tris-HCl, pH 7-9; NaHCO3/Na2CO3, pH 9.5-10.5. The temperature optimum was determined by assaying the enzyme activity in 25 mM Tris-HCl, pH 8.0 at temperatures ranging from 25° C. to 70° C.

For orientation: Km means the concentration of substrate that gives half-maximal velocity. One may read the kcat as the number of substrate molecules converted per active site and unit of time at saturation.

Like-named read-outs stand apart in the source and are kept apart here.

As for `[Cl][Ni][Cl]` [NiCl2], the “effect of metal on native enzyme activity” value (“effect of metal” for short) in data set [1] is listed as “slight decreases in activity”. In data set [1] (metal salt 0.2 mM), the Relative activity is reported as 79 ± 3.

As for `[Cl][Fe]([Cl])[Cl]` [FeCl3], the Relative activity in data set [1] (metal salt 0.2 mM) amounted to 105 ± 4.

For the molecule `[Cl-].[Cl-].[Co+2]` [CoCl2], the Relative activity in data set [1] worked out at 92 ± 5.

Consider `c1cnc2c(c1)ccc1cccnc12` [o-phenanthroline, 1,10-phenanthroline], for which, in data set [2], the “effect of chelator on activity” value is recorded as “failed to alter activity”.

Regarding `O=C1CC(=O)NC(=O)N1` [barbituric acid], in data set [3] (100 μM, even with 50 μg of protein in a single assay), the “detectable activity with compound as substrate” value was “did not show detectable activity”.

`[Cl-].[Cl-].[Mg+2]` [MgCl2]: the “activity as % of native activity” value in data set [1] was found to be 119%. Further, the Relative activity in data set [1] (metal salt 2.0 mM) is listed as 119 ± 2.

On to `Cn1c(=O)[nH]c(=O)[nH]c1=O` [methyl isocyanurate], for which, in data set [3], the “rate relative to the preferred substrate cyanuric acid” value is reported as “less than 1%”. In addition, the “rate of hydrolysis as substrate” value in data set [3] (100 μM compound, 25 mM Tris-HCl pH 8.0) is 0.13 µmol/min/mg.

In the case of `[Cl][Cu][Cl]` [CuCl2], in data set [1], the “effect of metal” value is reported as “slight decreases in activity”. Besides, the Relative activity in data set [1] (metal salt 0.2 mM) worked out at 83 ± 3.

With `O=S(=O)(O)c1ccc(O)c2ncccc12` [8-hydroxyquinoline-5-sulfonic acid], in data set [2], the “effect of chelator on activity” value is “failed to alter activity”.

Regarding `O=C(O)CN(CCN(CC(=O)O)CC(=O)O)CC(=O)O` [EDTA, ethylenediaminetetraacetic acid], the “effect of chelator on activity” value in data set [2] was “failed to alter activity”.

Regarding `O=S(=O)([O-])[O-].[Zn+2]` [ZnSO4], in data set [1], the “effect of metal” value was “greatest inhibitory affect”. Besides, the Relative activity in data set [1] (metal salt 0.2 mM) was 51 ± 4.

In the case of `[Ca+2].[Cl-].[Cl-]` [CaCl2], the “activity as % of native activity” value in data set [1] is 121%. The Relative activity in data set [1] (metal salt 1.0 mM) was determined as 121 ± 7.

As for `O=S(=O)([O-])[O-].[Mn+2]` [MnSO4], the Relative activity in data set [1] (metal salt 0.2 mM) came out at 96 ± 3.

B1: cyanuric acid hydrolase from M. thermoacetica ATCC 39073: recombinant His-tagged cyanuric acid hydrolase encoded by ORF Moth—2120 of Moorella thermoacetica ATCC 39073, expressed in E. coli (protein, listed as Moorella thermoacetica)
chain: T1 sequence (Q2RGM7 1-367)
modifications: His tag
notes: recombinant His-tagged cyanuric acid hydrolase encoded by ORF Moth—2120 of Moorella thermoacetica ATCC 39073, expressed in E. coli
For the molecule B1, the “initial activity remaining after 30 min at 50° C.” value in data set [4] (30 min, pH 8.0) was “stable”. Moreover, the “initial activity remaining after 30 min at 50° C.” value in data set [4] (30 min, pH 8.0, listed as Moorella enzyme) is on record as 95%. Moreover, the “initial activity remaining after 30 min at 70° C.” value in data set [4] (70° C., 30 min, pH 8.0) is 30%. Moreover, the “Thermostability: temperature where activity above 50% after a 30 min incubation” value in data set [4] (pH 8.0, 30 min incubation) was 20-65 °C. The “loss of activity after 8 weeks” value in data set [5] (both storage temperatures (4° C. and −80° C.)) is “no loss of activity”. The “specific activity after 8 weeks as % of initial specific activity” value in data set [5] (stored at 4° C., 8 weeks) was 142%. Moreover, in data set [5] (stored at 4° C.), the “Activity, 0 week” value is given as 11.9 ± 0.23 μmol per min per mg protein; the “Activity, 2 week” value is 12.5 ± 0.2 μmol per min per mg protein; the “Activity, 4 week” value is 15.9 ± 0.7 μmol per min per mg protein; the “Activity, 6 week” value is given as 16.6 ± 0.9 μmol per min per mg protein. In data set [5] (stored at 4° C.), the “Activity, 8 week” value is given as 16.9 ± 1^ μmol per min per mg protein. For the same molecule, in data set [5] (stored at −80° C.), the “Activity, 0 week” value was 11.9 ± 0.2 μmol per min per mg protein; the “Activity, 2 week” value is 14.9 ± 0.1 μmol per min per mg protein; the “Activity, 4 week” value is given as 14.3 ± 0.3 μmol per min per mg protein; the “Activity, 6 week” value is listed as 12.3 ± 0.4 μmol per min per mg protein. Also, the “Activity, 8 week” value in data set [5] (stored at −80° C.) is recorded as 11.7 ± 1.1 μmol per min per mg protein. Moreover, the “kcat (literature)” value in data set [6] was 10.6 s⁻¹. Moreover, the Km in data set [6] (read-out: Km (literature)) is 110 µM. The “specific activity with cyanuric acid” value in data set [7] (100 μM cyanuric acid, 25 mM Tris-HCl pH 8.0, 30° C.) was found to be 15.7 µmol/min/mg. Moreover, the Michaelis constant (Km) in data set [7] (cyanuric acid 10 to 110 μM, Lineweaver-Burke, read-out: Km with cyanuric acid as substrate) is 110 µM. Further, the catalytic constant (kcat) in data set [7] (cyanuric acid as substrate) came to 10.6 s⁻¹. Also, the “Metal affects on activity” value in data set [1] was “Cu(II), Zn(I), Ni(II)”. In addition, in data set [3], the Known substrates entry is “Cyanuric acid, N-”. Also, the “Influence of chelators on activity” value in data set [2] is on record as “No affect EDTA, o-”. Besides, the “Temp, optimum” value in data set [8] (25 mM Tris-HCl pH 8.0, range 25-70° C.) was determined as 70 °C. Moreover, the pH optimum in data set [8] (30° C., pH 5.5 to 10.5) came to 8.0. The “maximum activity at 70° C.” value in data set [8] (70° C., pH 8.0) is on record as 24 μmol per min per mg protein.
